This passage reports Kd results from patent publication US20230124851A1 (INHIBRX LNC, published 2023).

The labels stand for the following.
T1: human B7H3 (CD276) on the cell surface (human, UniProt Q5ZPR3 29-534)
T1 construct: B7H3 on A375 and other B7H3-positive or transfected cells
T1 sequence: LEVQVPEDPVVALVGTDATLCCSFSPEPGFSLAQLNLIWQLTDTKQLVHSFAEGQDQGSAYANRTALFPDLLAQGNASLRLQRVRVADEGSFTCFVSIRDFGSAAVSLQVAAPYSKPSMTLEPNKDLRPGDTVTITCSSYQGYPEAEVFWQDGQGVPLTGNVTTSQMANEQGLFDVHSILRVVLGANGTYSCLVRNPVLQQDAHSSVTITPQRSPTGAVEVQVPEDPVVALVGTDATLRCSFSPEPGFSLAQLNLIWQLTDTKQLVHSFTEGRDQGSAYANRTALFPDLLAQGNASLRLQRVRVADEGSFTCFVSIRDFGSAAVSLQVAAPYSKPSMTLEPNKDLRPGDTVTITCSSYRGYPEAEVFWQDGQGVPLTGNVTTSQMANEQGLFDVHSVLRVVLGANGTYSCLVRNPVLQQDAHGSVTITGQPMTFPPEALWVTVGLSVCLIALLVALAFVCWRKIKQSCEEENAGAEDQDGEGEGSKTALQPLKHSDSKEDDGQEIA

B1: cx3090 (bispecific antibody, not shown: a dimerising Fc or GST)
chain 1: EVQLVESGGGEVQPGGSLRLSCAASGSTFSSYHMSWFRQAPGKQREPVATSHHGGTTNYAGSVKGRFTISRDNAKNTVYLQMNTLRAEDTAVYYCKADHGYQGRGYWGQGTLVTVKPGGSGGGGIEPDIGGSGGSEVQLVESGGGLVQPGGSLRLSCAASGFTFNTYAMNWVRQAPGKCLEWVARIRSKYNNYATYYADSVKGRFTISRDDAKNTLYLQMSSLRAEDTAVYYCVRHGNFGNSYVSWFAYWGQGTLVTVKPEVQLVESGGGEVQPGGSLRLSCAPSERTFSTYTMGWFRQAPGKEREFVAVVNWGGGSKYYAESVKGRFTISRDNAKNTVYLQMSSLRAEDTAVYYCAAGGAYSGPYYDTRQYTYWGQGTLVTVKP
chain 2: GGSGGGGIEPDIGGSGGSQAVVTQEPSLTVSPGGTVTLTCGSSTGAVTTSNYANWVQQKPGQAFRGLIGGTNKRAPGVPARFSGSLLGGKAALTISGAQPEDEADYYCALWYSNHWVFGCGTKLTVLEVQLLESGGGEVQPGGSLRLSCAASGFSFSINAMGWYRQAPGKRREFVAAIESGRNTVYAESVKGRFTISRDNAKNTVYLQMSSLRAEDTAVYYCGLLKGNRVVSPSVAYWGQGTLVTVKP
notes: chain 2 ends in the 4-1BB sdAb RH3v5-1
B2: cx3243 (bispecific antibody, not shown: a dimerising Fc or GST)
chain 1: B1 chain 1 with S120G, G123S, I125G, E126G, P127G, D128G, I129S, S132G
chain 2: B1 chain 2 with S3G, G6S, I8G, E9G, P10G, D11G, I12S, S15G
notes: as for B1
B3: cx4136 (bispecific antibody)
chain 1: EVQLVESGGGEVQPGGSLRLSCAASGSTFSSYHMSWFRQAPGKQREPVATSHHGGTTNYAGSVKGRFTISRDNAKNTVYLQMNTLRAEDTAVYYCKADHGYQGRGYWGQGTLVTVKPDKTHTCPPCPAPGGPSVFLFPPKPKDTLMISRTPEVTCVVVDVSHEDPEVKFNWYVDGVEVHNAKTKPREEQYNSTYRVVSVLTVLHQDWLNGKEYKCKVSNKALPAPIEKTISKAKGQPREPQVYTLPPCRDELTKNQVSLWCLVKGFYPSDIAVEWESNGQPENNYKTTPPVLDSDGSFFLYSKLTVDKSRWQQGNVFSCSVMHEALHNHYTQKSLSLSPTGGGGGSGGGGGSGGGGGSEVQLVESGGGLVQPGGSLRLSCAASGFTFNTYAMNWVRQAPGKCLEWVARIRSKYNNYATYYADSVKGRFTISRDDAKNTLYLQMSSLRAEDTAVYYCVRHGNFGNSYVSWFAYWGQGTLVTVKPEVQLVESGGGEVQPGGSLRLSCAASGSTFSSYHMSWFRQAPGKQREPVATSHHGGTTNYAGSVKGRFTISRDNAKNTVYLQMNTLRAEDTAVYYCKADHGYQGRGYWGQGTLVTVKP
chain 2: DKTHTCPPCPAPGGPSVFLFPPKPKDTLMISRTPEVTCVVVDVSHEDPEVKFNWYVDGVEVHNAKTKPREEQYNSTYRVVSVLTVLHQDWLNGKEYKCKVSNKALPAPIEKTISKAKGQPREPQVCTLPPSRDELTKNQVSLSCAVKGFYPSDIAVEWESNGQPENNYKTTPPVLDSDGSFFLVSKLTVDKSRWQQGNVFSCSVMHEALHNRYTQKSLSLSPTGGGGGSGGGGGSGGGGGSQAVVTQEPSLTVSPGGTVTLTCGSSTGAVTTSNYANWVQQKPGQAFRGLIGGTNKRAPGVPARFSGSLLGGKAALTISGAQPEDEADYYCALWYSNHWVFGCGTKLTVL
B4: cx4137 (bispecific antibody)
chain 1: B3 chain 1
chain 2: DKTHTCPPCPAPGGPSVFLFPPKPKDTLMISRTPEVTCVVVDVSHEDPEVKFNWYVDGVEVHNAKTKPREEQYNSTYRVVSVLTVLHQDWLNGKEYKCKVSNKALPAPIEKTISKAKGQPREPQVCTLPPSRDELTKNQVSLSCAVKGFYPSDIAVEWESNGQPENNYKTTPPVLDSDGSFFLVSKLTVDKSRWQQGNVFSCSVMHEALHNRYTQKSLSLSPTGGGGGSGGGGGSGGGGGSQAVVTQEPSLTVSPGGTVTLTCGSSTGAVTTSNYANWVQQKPGQAFRGLIGGTNKRAPGVPARFSGSLLGGKAALTISGAQPEDEADYYCALWYSNHWVFGCGTKLTVLEVQLLESGGGEVQPGGSLRLSCAASGFSFSINAMGWYRQAPGKRREFVAAIESGRNTVYAESVKGRFTISRDNAKNTVYLQMSSLRAEDTAVYYCGLLKGNRVVSPSVAYWGQGTLVTVKP
notes: as for B1
B5: cx4641 (bispecific antibody)
chain 1: EVQLVESGGGEVQPGGSLRLSCAASGSTFSSYHMSWFRQAPGKQREPVATSHHGGTTNYAGSVKGRFTISRDNAKNTVYLQMNTLRAEDTAVYYCKADHGYQGRGYWGQGTLVTVKPDKTHTCPPCPAPGGPSVFLFPPKPKDTLMISRTPEVTCVVVDVSHEDPEVKFNWYVDGVEVHNAKTKPREEQYNSTYRVVSVLTVLHQDWLNGKEYKCKVSNKALPAPIEKTISKAKGQPREPQVYTLPPCRDELTKNQVSLWCLVKGFYPSDIAVEWESNGQPENNYKTTPPVLDSDGSFFLYSKLTVDKSRWQQGNVFSCSVMHEALHNHYTQKSLSLSPTGGSGGGGIEPDIGGSGGSEVQLVESGGGLVQPGGSLRLSCAASGFTFNTYAMNWVRQAPGKCLEWVARIRSKYNNYATYYADSVKGRFTISRDDAKNTLYLQMSSLRAEDTAVYYCVRHGNFGNSYVSWFAYWGQGTLVTVKPQLQLQESGGGLVQAGDSLRLSCAASGFSFGSNVMMWVRQAPGKGPEWVSTIYSSGTGTFYADSVKGRFTISRNNAKNTLYLQMNSLKPDDTAVYYCATSGPVRGWGPRSQGTLVTVKP
chain 2: B3 chain 2 with G226S, S229G, G231I, G232E, G233P, G234D, S235I, G238S
notes: Printed composition is the same as cx4645
B6: cx3072 (bispecific antibody)
chain 1: EVQLVESGGGEVQPGGSLRLSCAASGSTFSSYHMSWFRQAPGKQREPVATSHHGGTTNYAGSVKGRFTISRDNAKNTVYLQMNTLRAEDTAVYYCKADHGYQGRGYWGQGTLVTVKPPGGGGDKTHTCPPCPAPELLGGPSVFLFPPKPKDTLMISRTPEVTCVVVDVSHEDPEVKFNWYVDGVEVHNAKTKPREEQYNSTYRVVSVLTVLHQDWLNGKEYKCKVSNKALPAPIEKTISKAKGQPREPQVYTLPPCRDELTKNQVSLWCLVKGFYPSDIAVEWESNGQPENNYKTTPPVLDSDGSFFLYSKLTVDKSRWQQGNVFSCSVMHEALHNHYTQKSLSLSPTGGGGGSGGGGGSGGGGGSEVQLVESGGGLVQPGGSLRLSCAASGFTFNTYAMNWVRQAPGKCLEWVARIRSKYNNYATYYADSVKGRFTISRDDAKNTLYLQMSSLRAEDTAVYYCVRHGNFGNSYVSWFAYWGQGTLVTVKPGGGGEVQLVESGGGEVQPGGSLRLSCAPSERTFSTYTMGWFRQAPGKEREFVAVVNWGGGSKYYAESVKGRFTISRDNAKNTVYLQMSSLRAEDTAVYYCAAGGAYSGPYYDTRQYTYWGQGTLVTVKP
chain 2: not shown
notes: IgG1-Hole 294, 298 or 446; VH13 237; VL10 265)

Where a chain is given by its changes, count along the chain named.

T2 sequence (P07766 23-207): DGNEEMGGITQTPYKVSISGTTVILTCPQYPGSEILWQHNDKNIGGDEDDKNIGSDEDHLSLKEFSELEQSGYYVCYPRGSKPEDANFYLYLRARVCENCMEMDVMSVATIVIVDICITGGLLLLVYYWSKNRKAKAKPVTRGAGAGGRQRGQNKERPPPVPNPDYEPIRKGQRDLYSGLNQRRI

In the first experiment the target is T1, human B7H3 (CD276) on the cell surface. The experiment is described as follows: flow cytometry titration on A375 cells (B7H3+); column head 'Affinity B7H3' (apparent). How it is done:
(§1) Binding of exemplary B7H3-targeting constrained CD3 engaging constructs set forth in Table E3 to CD3 on the surface of primary T cells or B7H3-expressing cells (A375) was assessed by flow cytometry. The T cells were primary T-cells that were negatively enriched from PBMCs isolated from healthy human donor peripheral blood leukopaks. Bound construct was detected with fluorophore-conjugated secondary antibodies specific for the human Fc (anti-human IgG APC secondary antibody) and binding was measured by flow cytometry. Cells incubated with secondary antibody only served as negative controls. Binding was compared to Dual-affinity Re-targeting Antibody (DART)-monomeric Fc format targeting B7H3 and CD3 (DART-Fc B7H3xCD3; see e.g. WO2017030926A1).
(§2) Table E4 summarizes the affinity of exemplary molecules for B7H3 or CD3, as determined from flow cytometry, in these studies.
A general note: A flow cytometer gives signals particle by particle.
B1: the Kd came to 0.523 nM.

As to B2, the Kd is 0.477 nM.

For B3, the Kd worked out at 0.368 nM.

On to B4, for which the Kd amounted to 0.375 nM.

In the case of B5, the Kd was found to be 0.379 nM.

For B6, the Kd was determined as 0.539 nM.

A further experiment concerns the target T2, CD3 on the surface of human T cells (human, UniProt P07766 23-207).
T2 construct: whole, on cells; Part of the CD3/TCR complex on cells; also called CD3 epsilon
The experiment is described as follows: flow cytometry on primary human T cells; column head 'Affinity CD3'. How it is done:
as §1, §2
As for B1, the Kd is over 200 nM.

B2 yielded a Kd of over 200 nM.

Turning to B3, the Kd is over 200 nM.

B4: the Kd is over 200 nM.

B5 came in with a Kd of over 200 nM.

B6: the Kd is over 200 nM.
